Values quoted from earlier work in PMC8667759.

How the values were obtained:
Piezo1 = Piezo1 (UniProt E2JF22)
Cav3 = Cav3 (UniProt O43497)
Chain of UniProt O43497 (O43497 whole entry): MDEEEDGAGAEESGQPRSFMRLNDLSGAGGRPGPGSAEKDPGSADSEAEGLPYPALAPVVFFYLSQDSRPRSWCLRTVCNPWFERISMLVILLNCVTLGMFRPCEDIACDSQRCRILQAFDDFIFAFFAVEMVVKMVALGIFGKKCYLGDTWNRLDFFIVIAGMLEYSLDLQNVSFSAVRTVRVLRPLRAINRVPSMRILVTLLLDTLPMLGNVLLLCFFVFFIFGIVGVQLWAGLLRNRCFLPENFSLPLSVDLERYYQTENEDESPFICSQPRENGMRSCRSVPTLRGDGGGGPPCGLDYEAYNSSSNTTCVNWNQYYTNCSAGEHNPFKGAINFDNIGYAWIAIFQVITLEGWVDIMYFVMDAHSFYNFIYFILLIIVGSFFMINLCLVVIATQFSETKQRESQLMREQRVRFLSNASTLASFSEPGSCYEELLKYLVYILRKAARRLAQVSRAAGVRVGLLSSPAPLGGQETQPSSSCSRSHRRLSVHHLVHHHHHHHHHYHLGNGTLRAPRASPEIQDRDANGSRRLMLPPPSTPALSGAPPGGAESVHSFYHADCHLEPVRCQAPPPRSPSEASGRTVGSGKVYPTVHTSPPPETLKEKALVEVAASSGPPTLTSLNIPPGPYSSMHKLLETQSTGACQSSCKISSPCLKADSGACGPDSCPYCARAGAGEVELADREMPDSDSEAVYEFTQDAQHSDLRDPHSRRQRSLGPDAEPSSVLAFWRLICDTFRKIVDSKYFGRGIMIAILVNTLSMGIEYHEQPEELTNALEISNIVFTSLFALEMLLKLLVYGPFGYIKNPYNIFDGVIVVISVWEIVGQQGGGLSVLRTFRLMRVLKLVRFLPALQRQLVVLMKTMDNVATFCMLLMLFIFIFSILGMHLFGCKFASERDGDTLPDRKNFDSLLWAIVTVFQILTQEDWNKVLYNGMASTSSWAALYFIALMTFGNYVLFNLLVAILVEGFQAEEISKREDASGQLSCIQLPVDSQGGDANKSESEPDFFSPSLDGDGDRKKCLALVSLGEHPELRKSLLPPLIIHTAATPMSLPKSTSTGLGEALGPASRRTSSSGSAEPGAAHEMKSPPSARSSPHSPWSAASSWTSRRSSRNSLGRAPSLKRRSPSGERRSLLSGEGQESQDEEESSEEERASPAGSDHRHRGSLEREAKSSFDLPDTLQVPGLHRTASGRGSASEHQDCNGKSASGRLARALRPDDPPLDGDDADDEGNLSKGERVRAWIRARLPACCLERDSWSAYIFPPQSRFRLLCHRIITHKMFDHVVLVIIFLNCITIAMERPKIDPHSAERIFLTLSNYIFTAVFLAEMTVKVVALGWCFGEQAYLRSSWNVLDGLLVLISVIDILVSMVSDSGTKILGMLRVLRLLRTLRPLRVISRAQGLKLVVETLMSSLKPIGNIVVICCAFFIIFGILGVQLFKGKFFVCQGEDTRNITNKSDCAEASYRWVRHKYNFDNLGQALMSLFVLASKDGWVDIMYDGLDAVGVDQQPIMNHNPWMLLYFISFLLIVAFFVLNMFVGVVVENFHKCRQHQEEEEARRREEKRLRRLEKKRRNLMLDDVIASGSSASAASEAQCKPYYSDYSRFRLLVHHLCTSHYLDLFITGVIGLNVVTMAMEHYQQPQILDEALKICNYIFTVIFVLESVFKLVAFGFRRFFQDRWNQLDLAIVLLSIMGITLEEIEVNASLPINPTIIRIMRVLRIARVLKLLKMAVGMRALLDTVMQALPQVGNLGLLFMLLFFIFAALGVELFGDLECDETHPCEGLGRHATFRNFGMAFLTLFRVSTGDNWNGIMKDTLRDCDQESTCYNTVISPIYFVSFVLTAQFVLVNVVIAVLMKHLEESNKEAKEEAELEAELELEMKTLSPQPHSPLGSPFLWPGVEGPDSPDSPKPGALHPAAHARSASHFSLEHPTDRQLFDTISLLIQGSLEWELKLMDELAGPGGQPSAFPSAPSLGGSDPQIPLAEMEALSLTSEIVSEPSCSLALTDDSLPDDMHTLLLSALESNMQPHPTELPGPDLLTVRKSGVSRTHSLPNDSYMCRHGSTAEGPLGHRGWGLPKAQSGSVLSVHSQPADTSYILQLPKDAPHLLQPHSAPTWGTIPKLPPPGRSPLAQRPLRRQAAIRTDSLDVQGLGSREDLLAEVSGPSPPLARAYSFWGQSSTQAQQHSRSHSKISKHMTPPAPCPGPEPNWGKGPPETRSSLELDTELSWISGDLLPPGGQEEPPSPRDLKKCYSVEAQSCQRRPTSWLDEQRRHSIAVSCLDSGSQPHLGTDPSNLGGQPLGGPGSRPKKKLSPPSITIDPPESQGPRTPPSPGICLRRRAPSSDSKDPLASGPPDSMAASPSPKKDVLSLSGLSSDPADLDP

Chain of UniProt E2JF22 (E2JF22 whole entry): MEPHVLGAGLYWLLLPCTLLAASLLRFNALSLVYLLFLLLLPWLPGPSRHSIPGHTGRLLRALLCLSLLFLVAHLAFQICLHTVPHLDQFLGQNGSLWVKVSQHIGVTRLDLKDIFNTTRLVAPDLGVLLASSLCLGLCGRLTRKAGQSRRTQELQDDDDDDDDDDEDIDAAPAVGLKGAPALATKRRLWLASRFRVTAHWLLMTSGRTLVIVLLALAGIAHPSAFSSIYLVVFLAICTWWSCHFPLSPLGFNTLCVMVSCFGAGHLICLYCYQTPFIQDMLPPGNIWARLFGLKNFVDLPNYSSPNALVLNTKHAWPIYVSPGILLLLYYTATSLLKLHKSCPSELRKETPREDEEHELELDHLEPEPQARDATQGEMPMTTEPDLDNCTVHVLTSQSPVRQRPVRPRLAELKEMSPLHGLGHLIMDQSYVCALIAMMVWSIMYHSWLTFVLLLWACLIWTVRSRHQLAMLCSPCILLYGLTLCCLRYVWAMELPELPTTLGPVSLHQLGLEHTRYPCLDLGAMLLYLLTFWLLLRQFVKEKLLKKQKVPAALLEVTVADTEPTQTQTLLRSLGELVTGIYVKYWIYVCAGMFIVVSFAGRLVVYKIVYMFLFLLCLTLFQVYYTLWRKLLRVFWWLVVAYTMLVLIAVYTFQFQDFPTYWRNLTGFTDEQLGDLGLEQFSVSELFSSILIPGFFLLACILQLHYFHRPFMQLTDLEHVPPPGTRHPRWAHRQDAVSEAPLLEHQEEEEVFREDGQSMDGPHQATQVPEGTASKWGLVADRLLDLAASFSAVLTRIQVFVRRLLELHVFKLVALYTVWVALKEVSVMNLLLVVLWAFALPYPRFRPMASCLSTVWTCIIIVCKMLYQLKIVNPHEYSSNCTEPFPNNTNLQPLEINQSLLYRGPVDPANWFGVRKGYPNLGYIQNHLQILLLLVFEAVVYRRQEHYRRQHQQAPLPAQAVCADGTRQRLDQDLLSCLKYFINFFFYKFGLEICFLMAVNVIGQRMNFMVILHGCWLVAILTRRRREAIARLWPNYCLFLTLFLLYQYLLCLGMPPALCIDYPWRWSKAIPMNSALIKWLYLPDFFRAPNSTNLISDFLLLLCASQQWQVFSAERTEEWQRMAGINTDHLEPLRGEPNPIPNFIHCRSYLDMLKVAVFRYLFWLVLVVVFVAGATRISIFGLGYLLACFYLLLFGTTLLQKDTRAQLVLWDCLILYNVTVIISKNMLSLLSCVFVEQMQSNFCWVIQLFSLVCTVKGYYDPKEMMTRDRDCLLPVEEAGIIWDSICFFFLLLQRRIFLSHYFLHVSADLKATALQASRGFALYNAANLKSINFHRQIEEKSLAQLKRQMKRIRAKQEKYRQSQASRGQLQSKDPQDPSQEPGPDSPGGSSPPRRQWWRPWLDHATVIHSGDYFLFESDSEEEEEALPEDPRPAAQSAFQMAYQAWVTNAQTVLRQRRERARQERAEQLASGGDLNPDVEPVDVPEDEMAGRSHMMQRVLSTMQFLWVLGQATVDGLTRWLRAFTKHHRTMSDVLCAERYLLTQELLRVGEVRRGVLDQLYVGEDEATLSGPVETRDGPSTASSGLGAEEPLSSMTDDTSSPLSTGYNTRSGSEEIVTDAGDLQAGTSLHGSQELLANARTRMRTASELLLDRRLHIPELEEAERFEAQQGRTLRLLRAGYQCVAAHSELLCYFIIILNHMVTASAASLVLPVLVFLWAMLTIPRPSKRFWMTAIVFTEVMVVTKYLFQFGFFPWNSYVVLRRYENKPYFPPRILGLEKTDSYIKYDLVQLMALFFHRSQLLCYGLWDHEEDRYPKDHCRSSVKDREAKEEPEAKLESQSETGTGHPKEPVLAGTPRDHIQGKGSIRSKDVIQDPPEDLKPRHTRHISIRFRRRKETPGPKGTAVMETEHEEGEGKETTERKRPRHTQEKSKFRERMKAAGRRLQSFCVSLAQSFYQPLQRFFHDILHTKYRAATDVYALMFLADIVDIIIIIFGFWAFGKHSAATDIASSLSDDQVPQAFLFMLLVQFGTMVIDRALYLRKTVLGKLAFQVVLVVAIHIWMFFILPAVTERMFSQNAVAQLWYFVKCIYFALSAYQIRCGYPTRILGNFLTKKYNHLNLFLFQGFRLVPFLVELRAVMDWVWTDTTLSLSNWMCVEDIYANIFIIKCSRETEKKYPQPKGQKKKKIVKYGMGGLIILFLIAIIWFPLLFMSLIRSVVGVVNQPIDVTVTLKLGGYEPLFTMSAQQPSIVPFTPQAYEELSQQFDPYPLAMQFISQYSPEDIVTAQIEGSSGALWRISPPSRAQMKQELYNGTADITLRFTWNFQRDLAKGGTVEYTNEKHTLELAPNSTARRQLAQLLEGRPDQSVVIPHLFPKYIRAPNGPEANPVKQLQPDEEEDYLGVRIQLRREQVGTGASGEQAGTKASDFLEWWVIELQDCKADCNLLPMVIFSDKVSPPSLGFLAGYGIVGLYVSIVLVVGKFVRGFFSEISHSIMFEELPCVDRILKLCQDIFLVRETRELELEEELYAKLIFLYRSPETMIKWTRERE

| Substance | Kd (Piezo1) | Kd (Cav3) |
| --- | --- | --- |
| GsMTx4 (from UniProt Q7YT39) | 155 nM | – |
| Kurtoxin (from UniProt P58910) | – | 15 nM |
